{
  "source": "paper PMC7260205",
  "about": "“Steric occlusion regulates proximal interactions of acyl carrier protein domain in fungal fatty acid synthase” (Communications Biology, 2020)",
  "target": "the molecule itself",
  "experiment": "cryo-EM structure; FAS1-His6 and FAS2 co-expressed and purified as one complex; 1-2 mg/ml in TBS (50 mM Tris pH 7.4, 150 mM NaCl) on holey gold grids; WT apo or with acetyl-CoA, malonyl-CoA and NADPH; mutants with substrates; D3 symmetrised maps; for H1564A and H740A also symmetry expansion, signal subtraction and focused classification",
  "data": [
    {"protein": "S. cerevisiae fatty acid synthase FAS2 polypeptide (α-chain), wild type (enzyme, Fatty acid synthase subunit alpha (FAS2 gene product), S. cerevisiae strain BJ2168, gene amplified from genomic DNA into NcoI-digested pET-15b(+); holds the ACP domain (residues 140-302), KR and KS domains; Serine 180 of the ACP domain is called the phosphopantetheine attachment site; No tag is named for FAS2; also called JWL03; holds the ACP domain; source: E. coli BL21, co-expressed with …) MKPEVEQELAHILLTELLAYQFASPVRWIETQDVFLKDFNTERVVEIGPSPTLAGMAQRTLKNKYESYDAALSLHREILCYSKDAKEIYYTPDPSELAAKEEPAKEEAPAPTPAASAPAPAAAAPAPVAAAAPAAAAAEIADEPVKASLLLHVLVAHKLKKSLDSIPMSKTIKDLVGGKSTVQNEILGDLGKEFGTTPEKPEETPLEELAETFQDTFSGALGKQSSSLLSRLISSKMPGGFTITVARKYLQTRWGLPSGRQDGVLLVALSNEPAARLGSEADAKAFLDSMAQKYASIVGVDLSSAASASGAAGAGAAAGAAMIDAGALEEITKDHKVLARQQLQVLARYLKMDLDNGERKFLKEKDTVAELQAQLDYLNAELGEFFVNGVATSFSRKKARTFDSSWNWAKQSLLSLYFEIIHGVLKNVDREVVSEAINIMNRSNDALIKFMEYHISNTDETKGENYQLVKTLGEQLIENCKQVLDVDPVYKDVAKPTGPKTAIDKNGNITYSEEPREKVRKLSQYVQEMALGGPITKESQPTIEEDLTRVYKAISAQADKQDISSSTRVEFEKLYSDLMKFLESSKEIDPSQTTQLAGMDVEDALDKDSTKEVASLPNKSTISKTVSSTIPRETIPFLHLRKKTPAGDWKYDRQLSSLFLDGLEKAAFNGVTFKDKYVLITGAGKGSIGAEVLQGLLQGGAKVVVTTSRFSKQVTDYYQSIYAKYGAKGSTLIVVPFNQGSKQDVEALIEFIYDTEKNGGLGWDLDAIIPFAAIPEQGIELEHIDSKSEFAHRIMLTNILRMMGCVKKQKSARGIETRPAQVILPMSPNHGTFGGDGMYSESKLSLETLFNRWHSESWANQLTVCGAIIGWTRGTGLMSANNIIAEGIEKMGVRTFSQKEMAFNLLGLLTPEVVELCQKSPVMADLNGGLQFVPELKEFTAKLRKELVETSEVRKAVSIETALEHKVVNGNSADAAYAQVEIQPRANIQLDFPELKPYKQVKQIAPAELEGLLDLERVIVVTGFAEVGPWGSARTRWEMEAFGEFSLEGCVEMAWIMGFISYHNGNLKGRPYTGWVDSKTKEPVDDKDVKAKYETSILEHSGIRLIEPELFNGYNPEKKEMIQEVIVEEDLEPFEASKETAEQFKHQHGDKVDIFEIPETGEYSVKLLKGATLYIPKALRFDRLVAGQIPTGWNAKTYGISDDIISQVDPITLFVLVSVVEAFIASGITDPYEMYKYVHVSEVGNCSGSGMGGVSALRGMFKDRFKDEPVQNDILQESFINTMSAWVNMLLISSSGPIKTPVGACATSVESVDIGVETILSGKARICIVGGYDDFQEEGSFEFGNMKATSNTLEEFEHGRTPAEMSRPATTTRNGFMEAQGAGIQIIMQADLALKMGVPIYGIVAMAATATDKIGRSVPAPGKGILTTAREHHSSVKYASPNLNMKYRKRQLVTREAQIKDWVENELEALKLEAEEIPSEDQNEFLLERTREIHNEAESQLRAAQQQWGNDFYKRDPRIAPLRGALATYGLTIDDLGVASFHGTSTKANDKNESATINEMMKHLGRSEGNPVIGVFQKFLTGHPKGAAGAWMMNGALQILNSGIIPGNRNADNVDKILEQFEYVLYPSKTLKTDGVRAVSITSFGFGQKGGQAIVVHPDYLYGAITEDRYNEYVAKVSAREKSAYKFFHNGMIYNKLFVSKEHAPYTDELEEDVYLDPLARVSKDKKSGSLTFNSKNIQSKDSYINANTIETAKMIENMTKEKVSNGGVGVDVELITSINVENDTFIERNFTPQEIEYCSAQPSVQSSFAGTWSAKEAVFKSLGVKSLGGGAALKDIEIVRVNKNAPAVELHGNAKKAAEEAGVTDVKVSISHDDLQAVAVAVSTKK", "values": [
      {"measurement": "binding result", "value": "binds"}
    ]}
  ]
}
